According to patent US20100061942A1 (UNIVERSITY OF MEDICINE AND DENTISTRY OF NEW JERSEY, published 2010):

Target: human STIM1 (human, UniProt Q13586 23-685, limits assumed)
Assay: co-immunoprecipitation from CHO cell lysates, Western blot; repeated with cross-linker DSP and different detergents
Procedure: Next, the interaction of P311 with SOCE molecular machinery was examined experimentally. The interaction of P311 with known components of SOCE, such as STIM1 and Orai1, was studied. A GFP-myc-Orai1 plasmid and the mammalian expression plasmid containing the human STIM1 cDNA (OriGene, Inc.) were used. The plasmids were transfected into CHO cells and 36 hours after transfection, total cell lysates from CHO cells transiently expressing GFP-myc-Orai1 were incubated with either a polyclonal antibody against P311, or an anti-myc monoclonal antibody, with normal rabbit IgG serving as the control. […] Similar results were obtained when co-IP assays were repeated using reversible cross-linker DSP and different detergents in cell lysis buffer, including Triton X-100, NP-40 and CHAPS.

Sequence of human STIM1 (Q13586 23-685 limits assumed): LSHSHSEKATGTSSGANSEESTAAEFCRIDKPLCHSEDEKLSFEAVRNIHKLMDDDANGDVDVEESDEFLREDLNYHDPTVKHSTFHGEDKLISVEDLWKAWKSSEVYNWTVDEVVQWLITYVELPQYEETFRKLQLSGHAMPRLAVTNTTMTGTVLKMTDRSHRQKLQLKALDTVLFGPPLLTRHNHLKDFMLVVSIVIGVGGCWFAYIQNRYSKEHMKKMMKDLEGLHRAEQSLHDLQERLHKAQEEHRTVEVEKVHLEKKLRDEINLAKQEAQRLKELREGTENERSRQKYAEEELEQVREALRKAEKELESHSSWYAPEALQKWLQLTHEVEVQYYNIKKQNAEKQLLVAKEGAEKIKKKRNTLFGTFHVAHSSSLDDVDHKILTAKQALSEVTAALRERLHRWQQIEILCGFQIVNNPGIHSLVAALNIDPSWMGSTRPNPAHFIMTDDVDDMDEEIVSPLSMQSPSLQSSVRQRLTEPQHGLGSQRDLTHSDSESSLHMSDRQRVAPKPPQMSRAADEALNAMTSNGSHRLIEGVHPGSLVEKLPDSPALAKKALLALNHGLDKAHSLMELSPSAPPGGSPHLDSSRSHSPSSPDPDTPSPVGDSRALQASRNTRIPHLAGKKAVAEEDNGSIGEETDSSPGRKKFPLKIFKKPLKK

B1: P311 (endogenous P311 present in CHO cells) (other)
chain: MVYYPGLLVWVSQEPFLYKEMEGSLTKGRLPVPKEVNRKKLEEARAASMTPPGSHELCFPNISYL
Does B1 bind?
Result: no binding
